Reference: article PMC5910400 (2018)

B1: CCL24 (protein)
chain: VVIPSPCCMFFVSKRIPENRVVSYQLSSRSTCLKAGVIFTTKKGQQFCGDPKQEWVQRYMKNLDAKQKKASPRARAVAVKGPVQRYPGNQTTC
B2: CCL14 (protein)
chain: TKTESSSRGPYHPSECCFTYTTYKIPRQRIMDYYETNSQCSKPGIVFITKRGHSVCTNPSDKWVQDYIKDMKEN
B3: CCL16 (protein)
chain: QPKVPEWVNTPSTCCLKYYEKVLPRRLVVGYRKALNCHLPAIIFVTKRNREVCTNPNDDWVQEYIKDPNLPLLPTRNLSTVKIITAKNGQPQLLNSQ
B4: CCL18 (protein)
chain: AQVGTNKELCCLVYTSWQIPQKFIVDYSETSPQCPKPGVILLTKRGRQICADPNKKWVQKYISDLKLNA
B5: CCL23 (ligand)
chain: RVTKDAETEFMMSKLPLENPVLLDRFHATSADCCISYTPRSIPCSLLESYFETNSECSKPGVIFLTKKGRRFCANPSDKQVQVCMRMLKLDTRIKTRKN
B6: CCL13 (ligand)
chain: not shown
B7: CCL8 (protein)
chain: QPDSVSIPITCCFNVINRKIPIQRLESYTRITNIQCPKEAVIFKTKRGKEVCADPKERWVRDSMKHLDQIFQNLKP
B8: CCL5 (ligand)
chain: SPYSSDTTPCCFAYIARPLPRAHIKEYFYTSGKCSNPAVVFVTRKNRQVCANPEKKWVREYINSLEMS
B9: CCL3L1 (ligand)
chain: APLAADTPTACCFSYTSRQIPQNFIADYFETSSQCSKPSVIFLTKRGRQVCADPSEEWVQKYVSDLELSA
B10: CCL3 (ligand)
chain: SLAADTPTACCFSYTSRQIPQNFIADYFETSSQCSKPGVIFLTKRSRQVCADPSEEWVQKYVSDLELSA
B11: CCL21 (ligand)
chain: SDGGAQDCCLKYSQRKIPAKVVRSYRKQEPSLGCSIPAILFLPRKRSQAELCADPKELWVQQLMQHLDKTPSPQKPAQGCRKDRGASKTGKKGKGSKGCKRTERSQTPKGP
B12: CCL17 (protein)
chain: ARGTNVGRECCLEYFKGAIPLRKLKTWYQTSEDCSRDAIVFVTVQGRAICSDPNNKRVKNAVKYLQSLERS
B13: CCL15 (protein)
chain: QFTNDAETELMMSKLPLENPVVLNSFHFAADCCTSYISQSIPCSLMKSYFETSSECSKPGVIFLTKKGRQVCAKPSGPGVQDCMKKLKPYSI
B14: CCL27 (protein)
chain: FLLPPSTACCTQLYRKPLSDKLLRKVIQVELQEADGDCHLQAFVLHLAQRSICIHPQNPSLSQWFEHQERKLHGTLPKLNFGMLRKMG
B15: CCL19 (protein)
chain: GTNDAEDCCLSVTQKPIPGYIVRNFHYLLIKDGCRVPAVVFTTLRGRQLCAPPDQPWVERIIQRLQRTSAKMKRRSS
B16: P1156 (evasin from Ixodes ricinus), purified, C-terminal StrepII:His tag (natural protein)
chain: DGGADDDNELFTVQYCGMNCTKDEGGTWTGCTGKKEGCKCYHESGKNYGLCLSTEYTDFSQYGNPSDSEIEAAKPKRSDTLSH
B17: CCL4L1 (protein)
chain: APMGSDPPTACCFSYTARKLPRNFVVDYYETSSLCSQPAVVFQTKRGKQVCADPSESWVQEYVYDLELN
B18: CCL4 (protein)
chain: APMGSDPPTACCFSYTARKLPRNFVVDYYETSSLCSQPAVVFQTKRSKQVCADPSESWVQEYVYDLELN
B19: CCL11 (protein)
chain: not shown

Key:
Assay in all cases: BLI
[1] = molecular target: P1156:G4S:P1243 two-warhead evasin (Ixodes ricinus | Amblyomma americanum, UniProt V5HBW0;A0A0C9S461)
[2] = molecular target: P1243:G4S:P1156 two-warhead evasin (Amblyomma americanum | Ixodes ricinus, UniProt A0A0C9S461;V5HBW0)
CXCL3 = CXCL3 (human, UniProt P19876 35-107)
CXCL2 = CXCL2 (human, UniProt P19875 35-107)
CXCL6 = CXCL6 (human)
CXCL1 = CXCL1 (human, UniProt P09341 35-107)
CXCL5 = CXCL5 (human)
CXCL8 = CXCL8 (human)
CXCL8 (human), sequence (chain, as listed by the source): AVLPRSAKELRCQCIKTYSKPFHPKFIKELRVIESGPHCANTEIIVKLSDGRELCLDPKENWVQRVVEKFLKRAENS

Binder	Kd [1] [nM]	Kd [2] [nM]	also measured
B1	4.5	9.4	
B2	1.1	2.1	
B3	0.65	0.93	
B4	0.001	0.3	
B5	0.098	0.37	
B6	0.7	1.5	
B7	84	93	
B8	2.6	3.4	
B9	5.3	6.4	
B10		25	
B11	29		
B12	5.4	4.5	
B13	12	11	
B14	17	23	
B15	3	2.5	
B16			Kd (CXCL3): 70 nM; Kd (CXCL2): 51 nM; Kd (CXCL6): 63 nM; Kd (CXCL1): 5.8 nM; Kd (CXCL5): 30 nM; Kd (CXCL8): 2.9 nM
B17	15	14	
B18	12	12	
B19	1.7	5.1	
